Tests used:
[1] = target: T1, VPS28 protein 27-221 (human, UniProt Q9UK41 27-221); test: yeast two-hybrid, breast and prostate cancer library
T1 construct: prey (Gal4 AD-HA fusion); also called vacuolar protein sorting 28
T1 sequence (looked up): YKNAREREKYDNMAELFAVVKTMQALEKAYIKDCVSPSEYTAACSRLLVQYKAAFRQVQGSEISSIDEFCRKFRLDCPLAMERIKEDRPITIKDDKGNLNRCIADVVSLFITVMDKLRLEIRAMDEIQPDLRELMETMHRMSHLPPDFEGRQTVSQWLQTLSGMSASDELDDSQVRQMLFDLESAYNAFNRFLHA

[2] = target: T2, GTPase-activiating protein 1 1392-1657 (human, UniProt P46940 1392-1657); test: yeast two-hybrid
T2 construct: prey (Gal4 AD-HA fusion); also called IQGAP1; IQGAP
T2 sequence (looked up): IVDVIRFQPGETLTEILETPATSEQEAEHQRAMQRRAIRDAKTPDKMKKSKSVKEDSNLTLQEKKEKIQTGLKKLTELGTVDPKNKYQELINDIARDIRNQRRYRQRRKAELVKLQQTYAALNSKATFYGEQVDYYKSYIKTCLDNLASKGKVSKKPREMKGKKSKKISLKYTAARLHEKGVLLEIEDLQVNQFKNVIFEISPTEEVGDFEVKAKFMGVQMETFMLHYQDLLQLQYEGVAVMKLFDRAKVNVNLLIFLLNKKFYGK

[3] = target: T3, Hook2 protein 201-559 (human, UniProt Q96ED9 201-559); test: yeast two-hybrid
T3 construct: prey (Gal4 AD-HA fusion)
T3 sequence (looked up): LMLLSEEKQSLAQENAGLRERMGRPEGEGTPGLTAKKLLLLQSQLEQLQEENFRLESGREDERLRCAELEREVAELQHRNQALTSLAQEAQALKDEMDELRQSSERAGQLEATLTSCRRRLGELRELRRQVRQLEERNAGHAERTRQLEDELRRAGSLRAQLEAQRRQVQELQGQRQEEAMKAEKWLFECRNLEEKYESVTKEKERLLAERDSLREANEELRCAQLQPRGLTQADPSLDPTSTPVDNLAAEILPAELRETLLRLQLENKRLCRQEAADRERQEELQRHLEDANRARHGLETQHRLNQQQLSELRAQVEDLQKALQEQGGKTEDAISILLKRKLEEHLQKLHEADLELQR

[4] = target: T4, Mitotic spindle coiled-coil related protein 668-895 (human, UniProt Q96R06 668-895); test: yeast two-hybrid
T4 construct: prey (Gal4 AD-HA fusion)
T4 sequence (looked up): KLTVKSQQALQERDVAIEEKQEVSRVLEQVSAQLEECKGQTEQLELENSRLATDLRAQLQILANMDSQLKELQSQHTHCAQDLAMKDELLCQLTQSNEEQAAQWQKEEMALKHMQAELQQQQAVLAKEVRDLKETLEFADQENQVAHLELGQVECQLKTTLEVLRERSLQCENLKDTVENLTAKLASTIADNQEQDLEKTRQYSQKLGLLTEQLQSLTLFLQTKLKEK

[5] = target: T5, Intersection 1 387-611 (human, UniProt Q15811 387-611); test: yeast two-hybrid
T5 construct: prey (Gal4 AD-HA fusion); also called Intersectin 1; ITSN1
T5 sequence (looked up): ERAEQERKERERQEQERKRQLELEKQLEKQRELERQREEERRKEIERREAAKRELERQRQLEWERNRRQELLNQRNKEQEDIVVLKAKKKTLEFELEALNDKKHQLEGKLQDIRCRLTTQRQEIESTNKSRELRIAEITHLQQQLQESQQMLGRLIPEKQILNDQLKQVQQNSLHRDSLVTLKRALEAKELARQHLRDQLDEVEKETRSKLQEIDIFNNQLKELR

[6] = target: T6, GTPase-activiating protein 1 1413-1567 (human, UniProt P46940 1413-1567); test: yeast two-hybrid
T6 construct: prey (Gal4 AD-HA fusion); also called IQGAP1; IQGAP
T6 sequence (looked up): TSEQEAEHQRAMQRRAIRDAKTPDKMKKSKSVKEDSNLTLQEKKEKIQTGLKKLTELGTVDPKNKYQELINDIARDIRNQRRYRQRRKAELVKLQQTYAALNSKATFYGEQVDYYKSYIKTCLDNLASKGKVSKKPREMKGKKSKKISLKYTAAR

[7] = target: T7, GTPase-activiating protein 1 1299-1555 (human, UniProt P46940 1299-1555); test: yeast two-hybrid
T7 construct: prey (Gal4 AD-HA fusion); also called IQGAP1; IQGAP
T7 sequence (looked up): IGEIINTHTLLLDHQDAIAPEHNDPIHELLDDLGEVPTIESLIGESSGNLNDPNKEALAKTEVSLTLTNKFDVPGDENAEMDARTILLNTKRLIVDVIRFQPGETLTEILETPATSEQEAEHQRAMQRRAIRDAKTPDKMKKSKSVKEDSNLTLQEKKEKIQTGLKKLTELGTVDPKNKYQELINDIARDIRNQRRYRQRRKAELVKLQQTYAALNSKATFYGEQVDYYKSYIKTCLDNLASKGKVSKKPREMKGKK

[8] = target: T8, Keratin 8 147-406 (human, UniProt P05787 147-406); test: yeast two-hybrid
T8 construct: prey (Gal4 AD-HA fusion)
T8 sequence (looked up): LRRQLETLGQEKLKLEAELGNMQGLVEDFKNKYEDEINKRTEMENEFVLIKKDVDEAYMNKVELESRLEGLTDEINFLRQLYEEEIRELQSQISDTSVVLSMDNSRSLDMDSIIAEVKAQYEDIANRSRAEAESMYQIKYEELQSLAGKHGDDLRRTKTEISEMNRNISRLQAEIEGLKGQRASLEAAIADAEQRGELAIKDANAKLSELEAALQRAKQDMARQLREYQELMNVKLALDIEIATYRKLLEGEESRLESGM

Measured: binding result

B1: Tumor Suppressor (TSG101) 240-391 (other, human, UniProt Q99816 240-390, looked up)
chain: WRMKEEMDRAQAELNALKRTEEDLKKGHQKLEEMVTRLDQEVAEVDKNIELLKKKDEELSSALEKMENQSENNDIDEVIIPTAPLYKQILNLYAEENAIEDTIFYLGEALRRGVIDLDVFLKHVRLLSRKQFQLRALMQKARKTAGLSDLY
notes: range 240-391; bait (Gal4 DBD fusion); also called TSG101 240-390
binds: all assays above

From patent US20050222029A1 (MYRIAD GENETICS, published 2005)
